Assay results: publication doi:10.1101/2022.03.01.482405

Assays:
[1] = target: Photosystem I protomer from Thermosynechococcus elongatus BP-1 (His10-tag on PsaF) (Thermosynechococcus elongatus BP-1) (UniProt P0A405); test: cryo-EM structure
[2] = target: Photosystem I trimer from Thermosynechococcus elongatus BP-1 (His10-tag on PsaF) (Thermosynechococcus elongatus BP-1) (UniProt P0A405); test: ITC

Row | Substance | stoichiometry N [1] | Kd [2] [µM]
1 | Photosystem I protomer from Thermosynechococcus elongatus BP-1 (His10-tag on PsaF) (from UniProt P0A405;P0A407;P0A415;P0A420;P0A423;P0A401;P0A427;P0A429;P0A425;Q8DGB4;P0A403) (complex) | 3 | –
2 | gallium-substituted ferredoxin from Thermosynechococcus elongatus BP-1 (from UniProt P0A3C9) (natural protein) | – | 800
